Test results from US9493781B2, “Synthetic brassica-derived chloroplast transit peptides” (DOW AGROSCIENCES LLC, priority 2012, dated 2016).

Assays:
[1] = system: Arabidopsis; experiment: dgt-28, dgt-32, dgt-33, dgt-3, dgt-7 transformed Arabidopsis (T1, T2, T3) response to postemergence glyphosate, % visual injury; type: in vivo, Arabidopsis thaliana; details: for % Injury Ave / % Injury Range (%) / No. plants with 20-40% injury / No. plants with <20% injury / No. plants with >40% injury: 14 days after application
From the text: Transgenic T1 Arabidopsis plants containing the dgt-28 transgene were sprayed with differing rates of glyphosate. Elevated rates were applied in this study to determine the relative levels of resistance (105, 420, 1,680 or 3,360 g ae/ha). A typical 1× usage rate of glyphosate that will control non-transformed Arabidopsis is 420 g ae/ha. […] The T1 Arabidopsis plants that were used in this study were variable copy number for the dgt-28 transgene. The low copy dgt-28 T1 Arabidopsis plants were self-pollinated and used to produce T2 plants.
Results of Glyphosate Selection of Transformed dgt-28 Arabidopsis Plants. The Arabidopsis T1 transformants were first selected from the background of untransformed seed using a glufosinate selection scheme. Three flats or 30,000 seed were analyzed for each T1 construct. The T1 plants selected above were molecularly characterized and representative plants with variable copy number were subsequently transplanted to individual pots and sprayed with various rates of commercial glyphosate as previously described. The response of these plants is presented in terms of % visual injury 2 weeks after treatment (WAT). […] An arithmetic mean and standard deviation is presented for each construct used for Arabidopsis transformation. The range in individual response is also indicated in the last column for each rate and transformation. Wild-type, non-transformed Arabidopsis (c.v. Columbia) served as a glyphosate sensitive control.
T2Arabidopsis Data. The second generation plants (T2) of selected T1 Arabidopsis events which contained low copy numbers of the dgt-28 transgene were further characterized for glyphosate tolerance. Glyphosate was applied as described previously. The response of the plants is presented in terms of % visual injury 2 weeks after treatment (WAT). […] An arithmetic mean and standard deviation are presented for each construct used for Arabidopsis transformation. The range in individual response is also indicated in the last column for each rate and transformation. Wild-type, non-transformed Arabidopsis (cv. Columbia) served as a glyphosate sensitive control. In the T2 generation hemizygous and homozygous plants were available for testing for each event and therefore were included for each rate of glyphosate tested. Hemizygous plants contain two different alleles at a locus as compared to homozygous plants which contain the same two alleles at a locus. Variability of response to glyphosate is expected in the T2 generation as a result of the difference in gene dosage for hemizygous as compared to homozygous plants. The variability in response to glyphosate is reflected in the standard deviation and range of response.
T3 Arabidopsis Data. The third generation plants (T3) of selected T2 Arabidopsis events which contained low copy numbers of the dgt-28 transgene were further characterized for glyphosate tolerance. […] Glyphosate was applied as described previously. The response of the plants is presented in terms of % visual injury 2 weeks after treatment (WAT). […] An arithmetic mean and standard deviation are presented for each construct used for Arabidopsis transformation. The range in individual response is also indicated in the last column for each rate and transformation. Wild-type, non-transformed Arabidopsis (cv. Columbia) served as a glyphosate-sensitive control.

[2] = system: Arabidopsis; experiment: Heritability progeny test of T1 families (T2 plants) with glufosinate, Arabidopsis; type: in vivo, Arabidopsis thaliana; details: progeny test of 100 T2 plants, glufosinate 200 g ae/ha
From the text: Heritability. Confirmed transgenic T1 Arabidopsis events were self-pollinated to produce T2 seed. These seed were progeny tested by applying Ignite™ herbicide containing glufosinate (200 g ae/ha) to 100 random T2 siblings. […] The T1 families (T2 plants) segregated in the anticipated 3 Resistant: 1 Sensitive model for a dominantly inherited single locus with Mendelian inheritance as determined by Chi square analysis (P>0.05). […] Seed were collected from 5 to 15 T2 individuals (T3 seed). Twenty-five T3 siblings from each of 3-4 randomly-selected T2 families were progeny tested as previously described.

[3] = Table 8, T1 Arabidopsis, 105 g ae/ha glyphosate
[4] = Table 8, T1 Arabidopsis, 420 g ae/ha glyphosate
[5] = Table 8, T1 Arabidopsis, 1680 g ae/ha glyphosate
[6] = Table 8, T1 Arabidopsis, 3360 g ae/ha glyphosate
[7] = Table 10, T1 Arabidopsis, 1,680 g ae/ha glyphosate
[8] = Table 12, T2 Arabidopsis, 1 copy, 420 g ae/ha glyphosate
[9] = Table 12, T2 Arabidopsis, 1 copy, 840 g ae/ha glyphosate
[10] = Table 12, T2 Arabidopsis, 1 copy, 1680 g ae/ha glyphosate
[11] = Table 12, T2 Arabidopsis, 1 copy, 3360 g ae/ha glyphosate

B1: pDAB105530: TraP5 v2 - dgt-28 v5: binary construct TraP5 v2: dgt-28 v5 (SEQ ID NO:33) (nucleic acid)
DNA: ATGCAACTCCTGAATCAGAGGCAAGCCCTGCGTCTTGGTCGTTCATCTGCTTCAAAGAACCAGCAAGTTGCTCCACTGGCCTCTAGGCCTGCTTCTTCCTTGAGCGTCAGCGCATCCAGCGTCGCACCTGCACCTGCTTGCTCAGCTCCTGCTGGAGCTGGAAGGCGTGCTGTTGTCGTGAGAGCAGCAAGAGGGATGCCAGCCTTGTCTTTACCTGGATCAAAGAGTATCACAGCTAGGGCACTCTTTCTTGCTGCTGCTGCTGATGGGGTTACTACTTTGGTGAGGCCATTGAGAAGTGACGACACAGAAGGATTCGCTGAGGGGTTAGTTCGTTTAGGCTATCGTGTAGGGAGGACACCCGATACTTGGCAAGTCGATGGCAGACCACAAGGACCAGCAGTGGCTGAGGCTGACGTCTACTGTAGAGACGGAGCAACCACCGCTAGATTCTTGCCAACCTTAGCAGCTGCTGGTCACGGAACATACAGATTTGATGCTTCACCACAGATGAGGAGACGTCCTCTTTTGCCCTTAAGCAGAGCCTTGAGGGATTTGGGTGTCGATCTTAGACACGAAGAAGCTGAAGGTCATCACCCTCTGACTGTCCGTGCTGCTGGGGTTGAAGGAGGAGAGGTTACTTTGGATGCTGGTCAGTCAAGTCAGTATCTCACTGCCTTGTTGCTCCTTGGTCCCCTTACAAGACAAGGACTGAGGATAAGGGTTACTGATTTGGTGTCAGCACCATACGTGGAGATTACGCTTGCAATGATGAGGGCTTTCGGAGTTGAAGTGGCAAGGGAGGGAGATGTGTTCGTTGTTCCACCTGGTGGATATCGTGCAACTACGTATGCTATAGAACCCGACGCAAGTACTGCTTCTTACTTCTTCGCAGCTGCTGCTTTGACTCCTGGAGCTGAAGTGACTGTACCTGGGTTAGGCACGGGAGCACTTCAAGGAGATTTGGGATTTGTAGATGTCTTAAGGAGAATGGGAGCCGAGGTGTCCGTAGGAGCTGATGCAACCACTGTTAGAGGAACTGGTGAATTGCGTGGCCTTACAGCCAACATGAGAGACATAAGTGATACGATGCCGACCCTCGCTGCAATAGCACCCTTTGCTAGTGCTCCAGTTAGAATCGAGGATGTTGCCAACACTCGTGTCAAAGAATGTGACAGACTTGAGGCTTGTGCAGAGAACCTTAGGAGGTTGGGAGTAAGGGTTGCAACGGGTCCGGACTGGATTGAGATACACCCTGGTCCAGCTACTGGTGCTCAAGTCACAAGCTATGGTGATCACAGAATTGTGATGTCATTTGCAGTGACTGGACTTCGTGTGCCTGGGATCAGCTTCGACGACCCTGGCTGTGTTCGTAAGACTTTTCCTGGGTTTCACGAGGCTTTCGCAGAATTGAGGCGTGGCATTGGGAGCTGA
modifications: In-frame fusion of dgt-28 v5 and TraP5 v2
Glyphosate tolerance ([1]; T2 Arabidopsis, versus dgt-28 constructs with other TraP transit peptides): did not provide robust tolerance to glyphosate
% Injury Ave [1, 3]: 39.3%
% Injury Range (%) [1, 3]: 8-100%
No. plants with 20-40% injury [1, 3]: 2
No. plants with <20% injury [1, 3]: 2
No. plants with >40% injury [1, 3]: 2
% Injury Ave [1, 4]: 33.0%
% Injury Range (%) [1, 4]: 8-85%
No. plants with 20-40% injury [1, 4]: 4
No. plants with <20% injury [1, 4]: 1
No. plants with >40% injury [1, 4]: 1
% Injury Ave [1, 5]: 47.5%
% Injury Range (%) [1, 5]: 25-85%
No. plants with 20-40% injury [1, 5]: 4
No. plants with <20% injury [1, 5]: 0
No. plants with >40% injury [1, 5]: 2
% Injury Ave [1, 6]: 76.7%
% Injury Range (%) [1, 6]: 50-85%
No. plants with 20-40% injury [1, 6]: 0
No. plants with <20% injury [1, 6]: 0
No. plants with >40% injury [1, 6]: 6
% Injury Ave [1, 7]: 47.5%
% Injury Range (%) [1, 7]: 25-85%
No. plants with 20-40% injury [1, 7]: 4
No. plants with <20% injury [1, 7]: 0
No. plants with >40% injury [1, 7]: 2
% Injury Ave [1, 8]: 75.0%
% Injury Range (%) [1, 8]: 50-90%
No. plants with 20-40% injury [1, 8]: 0
No. plants with <20% injury [1, 8]: 0
No. plants with >40% injury [1, 8]: 4
% Injury Ave [1, 9]: 80.0%
% Injury Range (%) [1, 9]: 50-90%
No. plants with 20-40% injury [1, 9]: 0
No. plants with <20% injury [1, 9]: 0
No. plants with >40% injury [1, 9]: 4
% Injury Ave [1, 10]: 75.0%
% Injury Range (%) [1, 10]: 60-85%
No. plants with 20-40% injury [1, 10]: 0
No. plants with <20% injury [1, 10]: 0
No. plants with >40% injury [1, 10]: 4
% Injury Ave [1, 11]: 76.3%
% Injury Range (%) [1, 11]: 70-80%
No. plants with 20-40% injury [1, 11]: 0
No. plants with <20% injury [1, 11]: 0
No. plants with >40% injury [1, 11]: 4
T1 Families Tested Segregating at 1 Locus (%) [2]: 100%
